Measurements: patent publication US20170044257A1 (BRIGHAM AND WOMEN S HOSPITAL, published 2017)

Biological target: T1, human alpha-fetoprotein (hAFP) (human, UniProt P02771 19-609)
T1 construct: No signal peptide cleavage site is stated; also called human AFP
T1 sequence: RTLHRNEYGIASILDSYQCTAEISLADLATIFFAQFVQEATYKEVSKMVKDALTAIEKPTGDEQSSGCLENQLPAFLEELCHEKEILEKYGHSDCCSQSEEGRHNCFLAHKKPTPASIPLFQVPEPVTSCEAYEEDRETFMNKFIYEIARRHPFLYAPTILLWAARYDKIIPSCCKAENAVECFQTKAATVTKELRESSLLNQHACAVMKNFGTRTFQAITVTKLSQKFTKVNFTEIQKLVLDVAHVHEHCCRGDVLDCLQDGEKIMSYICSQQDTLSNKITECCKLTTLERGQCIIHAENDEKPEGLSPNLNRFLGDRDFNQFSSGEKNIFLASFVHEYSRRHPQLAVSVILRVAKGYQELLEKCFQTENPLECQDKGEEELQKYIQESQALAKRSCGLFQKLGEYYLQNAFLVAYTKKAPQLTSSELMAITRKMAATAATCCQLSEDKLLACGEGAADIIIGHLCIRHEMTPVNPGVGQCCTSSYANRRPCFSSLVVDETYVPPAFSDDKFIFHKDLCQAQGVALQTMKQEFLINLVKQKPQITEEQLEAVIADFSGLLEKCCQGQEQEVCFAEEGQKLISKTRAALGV
Assay: SPR (Biacore 3000), mFcRn/mβ2m on chip, hAFP injected, neutral pH
Procedure: Surface plasmon resonance was conducted using a Biacore 3000 instrument (GE Healthcare) with CMS sensor chips coupled with recombinant human FcRn & hβ₂m heterodimer protein or mouse FcRn & mβ₂m (1000 RU). The coupling was performed by injecting 25 μg/mL of the protein diluted in 10 mM sodium acetate pH 5.0 using the amine coupling kit (GE Healthcare). Phosphate buffer (67 mM phosphate buffer, 0.15 M NaCl, 0.005% Tween 20) at pH 6.0 or pH 7.4 was used as running buffer. Glycine pH 2.5 was used for regeneration of the flow cells. hAFP (SinoBiological) was injected at 25° C. with a flow rate of 25 μl/min, and data were analyzed using the BIAevaluation 4.1 software where the sensorgrams were zero adjusted and reference cell values subtracted.

B1: recombinant mouse FcRn & mβ2m (receptor)
chain: SETRPPLMYHLTAVSNPSTGLPSFWATGWLGPQQYLTYNSLRQEADPCGAWMWENQVSWYWEKETTDLKSKEQLFLEALKTLEKILNGTYTLQGLLGCELASDNSSVPTAVFALNGEEFMKFNPRIGNWTGEWPETEIVANLWMKQPDAARKESEFLLNSCPERLLGHLERGRRNLEWKEPPSMRLKARPGNSGSSVLTCAAFSFYPPELKFRFLRNGLASGSGNCSTGPNGDGSFHAWSLLEVKRGDEHHYQCQVEHEGLAQPLTVDLDSSARSS
b2m: IQKTPQIQVYSRHPPENGKPNILNCYVTQFHPPHIEIQMLKNGKKIPKVEMSDMSFSKDWSFYILAHTEFTPTETDTYACRVKHASMAEPKTVYWDRDM
notes: Coupled to the Biacore chip for SPR; also called mFcRn
B1: binds.
